The values below come from patent US20050008616A1, “Recombinant human interferon-beta-1b polypeptides” (Schering Aktiengesellschaft, priority 2003, published 2005).

Where “and” joins values, the source holds several entries; their conditions need not be identical. Equal entries are not always repeated.

Series [1] has as its target T1, fibroblast-derived native IFN-β (Homo sapiens, UniProt P01574).
T1 construct: host or cells: human fibroblasts (natural producer)
As to conditions: partially purified native interferon; cited from earlier work.

A further series has as its target T2, Soybean Agglutinun (soybean, UniProt P05046 33-285, biotinylated (sites not given)).
T2 construct: Bought biotinylated lectin; also called SBA
Description: dot blot, probed with biotinylated lectin. As to the method: Finally, IFN-β-1b lot A was tested for binding to biotinylated lectins from Vector Laboratories.

A short description of series [2]: IFN-β specific activity, assay not stated.
For another series, the system named is EAE. As to conditions: rodent EAE; cited from earlier work.
In series [3] the test system is human amnionic cell line WISH infected with VSV. It counts as cell-based, vesicular stomatitis virus. To be noted: WISH cells infected with VSV, viral plaque reduction.
In another series the test system is MxA gene. Description: MxA gene induction assay (ICLA). It counts as cell-based, human. The source says: Based on the specific induction of the MxA gene by type I IFNs in cultured human cells (Von Wussow, P. et al. (1990) Eur. J. Immunol. 20:2015-2019; and Simon, A. et al. (1991) J. Interferon Res. 11:215-219), an immunochemiluminometric (“ICLA”) assay was developed by Files, J. G. et al. (1998) J. Interferon Res. 18:1019-1024. The ICLA assay, which is based on the procedure of Oh, S. K. et al. (1994) J. Immunol. Meth. 176:79-91, detects MXa protein in cell lysates using two non-competing anti-MxA monoclonal antibodies, one of which is conjugated with acridinium ester, which is detected in a luminometer. The MxA gene induction ICLA assay procedure used herein is described in detail in Files, J. G. et al. (1998) supra.

T1 sequence (P01574 22-187): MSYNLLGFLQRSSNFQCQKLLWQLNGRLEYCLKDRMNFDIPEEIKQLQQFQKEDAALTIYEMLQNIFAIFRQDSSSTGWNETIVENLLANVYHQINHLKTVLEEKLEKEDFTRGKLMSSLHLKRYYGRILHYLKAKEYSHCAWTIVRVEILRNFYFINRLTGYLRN
T2 sequence (P05046 33-285 limits assumed): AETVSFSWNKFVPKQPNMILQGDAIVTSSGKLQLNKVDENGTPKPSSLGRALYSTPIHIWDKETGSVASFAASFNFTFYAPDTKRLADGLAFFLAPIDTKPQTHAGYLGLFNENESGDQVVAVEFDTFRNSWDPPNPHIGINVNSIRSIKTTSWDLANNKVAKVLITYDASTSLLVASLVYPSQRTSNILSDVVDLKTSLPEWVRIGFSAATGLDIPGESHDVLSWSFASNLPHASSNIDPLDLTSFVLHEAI

Take “(N-acetylneuraminosyl)galactosylglucosylceramide [GM3]”: the “effect on antiviral activity of native IFN-β” value in series [1] was “abolished”.
For `CC(=O)N[C@H]1[C@H]([C@H](O)[C@H](O)CO)OC(O)(C(=O)O)C[C@@H]1O` (stereo partly shown) [sialic acid, N-acetylneuraminic acid], the “effect on antiviral activity of native IFN-β” value in series [1] is recorded as “not”.

B1: peak IFN-β-1b (fraction 5) from the Con A Sepharose column (ligand)
chain: MSYNLLGFLQRSSNFQSQKLLWQLNGRLEYCLKDRMNFDIPEEIKQLQQFQKEDAALTIYEMLQNIFAIFRQDSSSTGWNETIVENLLANVYHQINHLKTVLEEKLEKEDFTRGKLMSSLHLKRYYGRILHYLKAKEYSHCAWTIVRVEILRNFYFINRLTGYLRN
notes: Same polypeptide as IFN-β-1b lot A, after Con A Sepharose chromatography removed most of the non-covalently attached carbohydrate; The note on Met1 for m1 applies here too; also called IFN-β-1b lot A further purified by Con A Sepharose column chromatography
On to B1, for which the binding result with Soybean Agglutinun is listed as “no binding”.

B2: IFN-β-1b: recombinant human IFN-β expressed in E. coli with Cys17 to Ser17 substitution, 165 amino acids, not glycosylated (SEQ ID NO: 2) (protein, listed as Homo sapiens)
chain: MSYNLLGFLQRSSNFQSQKLLWQLNGRLEYCLKDRMNFDIPEEIKQLQQFQKEDAALTIYEMLQNIFAIFRQDSSSTGWNETIVENLLANVYHQINHLKTVLEEKLEKEDFTRGKLMSSLHLKRYYGRILHYLKAKEYSHCAWTIVRVEILRNFYFINRLTGYLRN
As to B2, in series [2], the specific activity was 2 to 3×10^7 IU/mg and ~3×10^7 IU/mg. Besides, the “in vivo efficacy in EAE models” value with EAE is recorded as “shows in vivo efficacy”.

B3: peak IFN-β-1b (fraction 5): IFN-β-1b lot A further purified by Con A Sepharose column chromatography, peak fraction 5, carbohydrates largely removed (protein, UniProt P01574 22-187, looked up, variant C17S)
Interferon beta: MSYNLLGFLQRSSNFQSQKLLWQLNGRLEYCLKDRMNFDIPEEIKQLQQFQKEDAALTIYEMLQNIFAIFRQDSSSTGWNETIVENLLANVYHQINHLKTVLEEKLEKEDFTRGKLMSSLHLKRYYGRILHYLKAKEYSHCAWTIVRVEILRNFYFINRLTGYLRN
modifications: interferon beta-1b; deglycosylated fraction
notes: IFN-β-1b lot A further purified by Con A Sepharose column chromatography, peak fraction 5, carbohydrates largely removed
B3: in series [3], the specific activity is 3.6×10^7 IU/mg.

B4: IFN-β-1aSER17: IFN-β-1a in which Cys17 is replaced by Ser17, expressed in CHO cells, purified by affinity chromatography (protein, UniProt P01574 22-187, looked up, variant C17S)
Interferon beta: MSYNLLGFLQRSSNFQSQKLLWQLNGRLEYCLKDRMNFDIPEEIKQLQQFQKEDAALTIYEMLQNIFAIFRQDSSSTGWNETIVENLLANVYHQINHLKTVLEEKLEKEDFTRGKLMSSLHLKRYYGRILHYLKAKEYSHCAWTIVRVEILRNFYFINRLTGYLRN
As for B4, the “decrease in specific activity” value in the series on MxA gene (PNGase F-mediated deglycosylation, non-reducing or reducing conditions, FIG. 2B) was 30-35%. Moreover, in the series with MxA gene (overnight (18 hours) incubation, FIG. 2B), the “effect on specific activity of overnight incubation alone” value is recorded as “not adversely affected”. Further, in the series with MxA gene (product label specific activity of reconstituted IFN-β-1b/Betaseron® as IFN standard, FIG. 2A), the specific activity was 1.3 to 2.4×10^8 IU/mg. For the same molecule, the “reduction in specific activity” value in the series with MxA gene (reduction in the presence of SDS followed by spontaneous reoxidation, FIG. 2B) is recorded as ~20%.
